In article PMC9023282:
Values joined by “and” are separate entries in the source; they are usually repeats but may differ in a detail not shown here. Equal entries are not always repeated.

Molecular target: GINS complex (Gins51 and Gins23), wild type (Thermococcus kodakarensis)
Assay: native gel or EMSA

## family D DNA polymerase (PolD), DP1 and DP2 (complex)
  stoichiometry N (PolD per GINS): 2 and 1
